The results in this text go back to patent US7205387B2, “Recombinant polypeptide useful for neurotrophin receptor mediated gene delivery and as neurotrophin agonist” (Agency for Science, Technology and Research, priority 2003, dated 2007).

Test [1] relates to PC12 (TrkA and p75^NTR positive) cells. Description: Gene delivery in vitro (pCAGluc luciferase reporter), PC12 cells. Format: cell-based, rat. As for the experimental part: (§1) A PC12 (rat pheochromocytoma) cell line was obtained from ATCC (American Type Culture Collection, Manassas, Va., USA) and cultured in RPMI-1640 medium supplemented with 10% fetal bovine serum (FBS) and 5% horse serum. PC12 cells are known to express TrkA and p75^NTR receptors. A COS7 (African green monkey kidney fibroblast) cell line was obtained from ATCC and cultured in Dulbecco's modified Eagle's medium (DMEM) supplemented with 10% fetal bovine serum, 50 U/ml penicillin, and 50 μg/ml streptomycin. The cells were maintained in a 37° C., 5% CO2, humidified incubator.
(§2) To determine the transfection efficiencies of our nucleic acid delivery systems, we employ a reporter plasmid, pCAGluc (a gift from Yoshiharu Matsuura, National Institute of Infectious Diseases, Tokyo, Japan), encoding firefly luciferase under the control of the composite promoter, CAG. CAG comprises the chicken β-actin promoter and the cytomegalovirus immediate early enhancer.
TrkA-targeting gene delivery complexes were tested for transfection efficiency in vitro in PC12 (TrkA and p75^NTR positive) cells and COS7 (neurotrophin receptor negative) cells. The cells were grown to 50–70% confluency in microplate wells (24-, 48-, or 96-well plates). The gene delivery complexes were prepared according to specifications presented for each example. Transfection was accomplished by replacing the serum-enriched medium with half the usual volume of reduced-serum medium, Opti-MEM (Invitrogen), containing the gene delivery complexes. Where specifically mentioned, 100 μM of chloroquine was also added to help the complexes escape from endosomes. After four hours of incubation, the cells were restored to the normal medium volume and serum concentration, either by topping up with medium containing twice the usual serum concentration (RPMI-1640 with 20% FBS and 10% horse serum for PC12) or by completely replacing the medium.
One to two days after transfection, the cell culture medium was removed and the cells were rinsed in phosphate-buffered saline (PBS). Enough Reporter Lysis Buffer (Promega, Wisconsin, Md., USA) to cover the bottom surface was added to each well (50 μl/well for 48-well plates). After one freeze-thaw cycle, the lysates were tested for luciferase activity using the Luciferase Assay System (Promega) and a single-tube luminometer (Berthold Lumat L B 9507, Bad Wildbad, Germany). The total protein concentration of each lysate was determined using the DC Protein assay (Bio-Rad, Hercules, Calif., USA). The results were expressed in relative light units (RLU) per milligram of total protein.

For test [2], the system named is COS7 (neurotrophin receptor negative) cells. The test can be described thus: Gene delivery in vitro (pCAGluc luciferase reporter), COS7 cells. It counts as cell-based, African green monkey. The following applies: triple complexes with protamine, 0.1 μg pCAGluc/well. Here is the method: as §1, §2
TrkA-targeting gene delivery complexes were tested for transfection efficiency in vitro in PC12 (TrkA and p75^NTR positive) cells and COS7 (neurotrophin receptor negative) cells. […]
One to two days after transfection, the cell culture medium was removed and the cells were rinsed in phosphate-buffered saline (PBS). […] The total protein concentration of each lysate was determined using the DC Protein assay (Bio-Rad, Hercules, Calif., USA). […]

Test [3] concerns plasmid DNA. Description: DNA retardation assay (agarose gel electrophoresis). It counts as binding. As for the experimental part: This assay qualitatively assesses the ability of a polypeptide or polycation to bind to DNA and thus to retard its migration (by decreasing its charge/mass ratio) through an agarose gel under electrophoresis. For a range of N/P ratios, polypeptide was added to 0.1 μg of plasmid DNA made up to 20 μl with either HEPES-buffered saline (HBS, 150 mM NaCl, 29 mM HEPES, pH 7.3) or 5% glucose. The mixtures were vortexed and incubated at room temperature for 30 minutes before being subjected to electrophoresis in a 0.8–1.0% Tris-borate-EDTA agarose gel stained with ethidium bromide for visualization under ultraviolet light.

The mark [4] stands for this setting: triple complexes with protamine (2 μg per μg DNA), 0.1 μg pCAGluc/well.

B1: DsbC-NL4-10K: chimeric recombinant protein: NL4-10K attached to the C-terminus of DsbC, an E. coli disulfide bond isomerase (protein)
chain: MKKGFMLFTLLAAFSGFAQADDAAIQQTLAKMGIKSSDIQPAPVAGMKTVLTNSGVLYITDDGKHIIQGPMYDVSGTAPVNVTNKMLLKQLNALEKEMIVYKAPQEKHVITVFTDITCGYCHKLHEQMADYNALGITVRYLAFPRQGLDSDAEKEMKAIWCAKDKNKAFDDVMAGKSVAPASCDVDIADHYALGVQLGVSGTPAVVLSNGTLVPGYQPPKEMKEFLDEHQKMTSGKGSTSGSGHHHHHHSAGLVPRGSCTTTHTFVKALTMDGKQAAWRFIRIDTACKKKKKKKKKK
modifications: DsbC-NL4-10K
notes: chimeric recombinant protein: NL4-10K attached to the C-terminus of DsbC, an E. coli disulfide bond isomerase
B1: the “effect of pre-treatment with free protein on DsbC-NL4-10K/DNA/PEI600 transfection” value in test [1] (30 minutes before transfection, compared to bovine serum albumin pre-treatment) was “greatly reduced the transfection efficiency”. In test [1] (setting [4]), the “N/P ratio of maximum transfection efficiency” value is on record as 1 N/P ratio and the “protein/DNA ratio of maximum transfection efficiency” value was 0.3 nmol/µg. The “effect on protamine-mediated gene delivery” value in test [2] is “did not improve gene delivery”. Moreover, the “DNA binding / retardation of DNA migration (in words)” value in test [3] is “binds to DNA but cannot fully condense it”.
